Data as given in patent US20240270866A1 (Alector, published 2024).
Changes are numbered by the printed parent chain.

T1: mouse SIRPA overexpressed on CHO cells (mouse, UniProt P97797 32-513)
T1 construct: also called CHO-muSIRPA
T1 sequence: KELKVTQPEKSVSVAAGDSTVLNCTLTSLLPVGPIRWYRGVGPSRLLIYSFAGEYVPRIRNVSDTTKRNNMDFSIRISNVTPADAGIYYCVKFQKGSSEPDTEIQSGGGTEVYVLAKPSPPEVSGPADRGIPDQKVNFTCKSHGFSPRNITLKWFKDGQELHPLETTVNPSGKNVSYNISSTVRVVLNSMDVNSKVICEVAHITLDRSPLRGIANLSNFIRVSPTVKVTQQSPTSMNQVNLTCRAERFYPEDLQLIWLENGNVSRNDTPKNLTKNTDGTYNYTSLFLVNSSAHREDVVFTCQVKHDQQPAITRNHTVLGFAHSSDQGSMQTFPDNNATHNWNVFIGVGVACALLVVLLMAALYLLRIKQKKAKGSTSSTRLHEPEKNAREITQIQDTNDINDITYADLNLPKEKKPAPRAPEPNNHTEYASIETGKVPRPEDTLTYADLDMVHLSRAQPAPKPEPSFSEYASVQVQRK

T2: Mouse SIRPA D1 Fc (mouse, UniProt P97797 32-150, limits assumed)
T2 sequence: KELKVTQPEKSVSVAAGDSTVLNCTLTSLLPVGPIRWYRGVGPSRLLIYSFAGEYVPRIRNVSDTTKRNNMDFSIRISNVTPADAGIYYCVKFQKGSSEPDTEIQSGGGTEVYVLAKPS

B1: SA-37 (antibody, V domains shown)
VH: QVQLQESGPGLVKPSQTLSLTCTVSGGSISSGGYYWSWIRQHPGKGLEWIGSIYYSGSTYYNPSLKSRVTISVDTSKNQFSLKLSSVTAADTAVYYCAREGAYSLYVNWFDPWGQGTLVTVSS
VL: EIVLTQSPGTLSLSPGERATLSCRASQSVSSSFLAWYQQKPGQAPRLLIYGASSRATGIPDRFSGSGSGTDFTLTISRLEPEDFAVYYCQQYDGVPITFGGGTKVEIK
notes: IgG
B2: SA-38 (antibody, V domains shown)
VH: B1 VH
VL: EIVMTQSPATLSVSPGERATLSCRASQSVSSSLAWYQQKPGQAPRLLIFGASTRATGIPARFSGSGSGTEFTLTISSLQSEDFAVYYCQQYDNYPPITFGGGTKVEIK
notes: IgG
B3: SA-36 (antibody, V domains shown)
VH: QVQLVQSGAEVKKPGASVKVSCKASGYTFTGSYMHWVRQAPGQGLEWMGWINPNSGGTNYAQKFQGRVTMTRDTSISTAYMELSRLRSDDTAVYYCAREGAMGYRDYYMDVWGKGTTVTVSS
VL: EIVLTQSPATLSLSPGERATITCQASQDISSYLAWYQQKPGQAPRLLIYDASNRATGIPARFSGSGSGTDFTLTISSLEPEDFAVYYCQQRTHYPWTFGGGTKVEIK
notes: IgG
B4: SA-60 (antibody, V domains shown)
VH: EVQLVESGGGLVQPGGSLRLSCAASGFTFSSYSMNWVRQAPGKGLEWVSYISSSSSTIYYADSVKGRFTISRDNAKNSLYLQMNSLRAEDTAVYYCARTHKHFDYGMDVWGQGTTVTVSS
VL: B3 VL with I21L, T22S, Q24R, D28S, I29V, A51S, Q90D, T92S, H93N, Y94L
notes: IgG
B5: SA-32 (antibody, V domains shown)
VH: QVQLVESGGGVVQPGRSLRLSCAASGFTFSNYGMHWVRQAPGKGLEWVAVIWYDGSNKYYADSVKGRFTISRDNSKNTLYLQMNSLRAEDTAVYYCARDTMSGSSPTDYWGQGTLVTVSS
VL: EIVMTQSPATLSVSPGERATLSCRASQSVGSNLAWYQQKPGQAPRLLIYGASTRATGIPARFSGSGSGTEFTLTISSLQSEDFAVYYCQQLNVFPWTFGGGTKVEIK
notes: IgG
B6: SA-39 (antibody, V domains shown)
VH: QVQLVQSGAEVKKPGASVKVSCKASGYTFTSYYMVWVRQAPGQGLEWMGIINPSGGSTSYAQKFQGRVTMTRDTSTSTVYMELSSLRSEDTAVYYCAREGGYGYRAYPYGMDVWGQGTTVTVSS
VL: DIQMTQSPSSLSASVGDRVTITCQASQDISNSLNWYQQKPGKAPKLLIYDASNLETGVPSRFSGSRSGTDFTFTISSLQPEDIATYYCQQVIILPLTFGGGTKVEIK
notes: IgG
B7: SA-47 (antibody, V domains shown)
VH: B6 VH with V35H, G100V, Y102V, G103S, Y104G, R105W, A106E, Y107I, P108T
VL: DIQMTQSPSSVSASVGDRVTITCRASQGISSWLAWYQQKPGKAPKLLIYAASSLQSGVPSRFSGSGSGTDFTLTISSLQPEDFATYYCQQISSYPITFGGGTKVEIK
notes: IgG
B8: SA-59 (antibody, V domains shown)
VH: QVQLQESGPGLVKPSETLSLTCTVSGGSISSYYWSWIRQPPGKGLEWIGSIYYSGSTNYNPSLKSRVTISVDTSKNQFSLKLSSVTAADTAVYYCARSGGSYSYLDVWGQGTMVTVSS
VL: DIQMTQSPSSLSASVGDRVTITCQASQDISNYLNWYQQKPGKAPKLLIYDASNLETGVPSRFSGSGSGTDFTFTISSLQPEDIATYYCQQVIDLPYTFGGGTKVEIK
notes: IgG
B9: SA-62 (antibody, V domains shown)
VH: B4 VH
VL: DIQMTQSPSSLSASVGDRVTITCQASQDIANYLNWYQQKPGKAPKLLIYDASNLETGVPSRFSGSGSGTDFTFTISSLQPEDIATYYCQQYVNYWTFGGGTKVEIK
notes: IgG
B10: SA-34 (antibody, V domains shown)
VH: QVQLVQSGAEVKKPGASVKVSCKASGYTFTNYGISWVRQAPGQGLEWMGWISAYNGNTNYAQKLQGRVTMTTDTSTSTAYMELRSLRSDDTAVYYCARDVYSSYSYWGQGTLVTVSS
VL: DIQLTQSPSTLSASVGDRVTITCRASQSISSWLAWYQQKPGKAPKLLIYDASSLESGVPSRFSGSGSGTEFTLTISSLQPDDFATYYCQQYELLPPTFGGGTKVEIK
notes: IgG
B11: SA-35 (antibody, V domains shown)
VH: QVQLVQSGAEVKKPGASVKVSCKASGYTFTSYYMHWVRQAPGQGLEWMGIINPSGGSTSYAQKFQGRVTMTRDTSTSTVYMELSSLRSEDTAVYYCAREAGYDIKGFDYWGQGTLVTVSS
VL: B10 VL with L4M, D50K, E92G, L93S, L94F, P96L
notes: IgG
B12: SA-1 (antibody, V domains shown)
VH: EVQLVESGGGLVQPGRSLRLSCAASGFTFGDYAMHWVRQAPGKGLEWVSGISWNSGSIGYADSVKGRFTISRDNAKNSLYLQMNSLRAEDTALYYCAKDAPYVGLDLWGRGTLVTVSS
VL: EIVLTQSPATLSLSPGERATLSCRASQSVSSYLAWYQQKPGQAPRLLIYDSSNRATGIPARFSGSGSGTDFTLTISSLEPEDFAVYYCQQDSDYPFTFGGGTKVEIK
notes: IgG
B13: SA-2 (antibody, V domains shown)
VH: QVQLVESGGGVVQPGRSLRLSCAASGFTFSSYGMHWVRQAPGKGLEWVAVISYDGSNKYYADSVKGRFTISRDNSKNTLYLQMNSLRAEDTAVYYCAKDLGGGSGGYATSDYYYGMDVWGQGTTVTVSS
VL: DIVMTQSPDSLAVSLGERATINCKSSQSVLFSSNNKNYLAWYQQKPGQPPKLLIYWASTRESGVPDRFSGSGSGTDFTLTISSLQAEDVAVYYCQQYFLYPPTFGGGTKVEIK
notes: IgG
B14: SA-43 (antibody, V domains shown)
VH: QLQLQESGPGLVKPSETLSLTCTVSGGSISSSSYAWGWIRQPPGKGLEWIGSIYYSGSTYYNPSLKSRVTISVDTSKNQFSLKLSSVTAADTAVYYCARELETSRHDIWGQGTTVTVSS
VL: B7 VL with I91A, S93A, Y94F
notes: IgG
B15: SA-58 (antibody, V domains shown)
VH: QLQLQESGPGLVKPSETLSLTCTVSGGSISSSSYAWGWIRQPPGKGLEWIGSIYYSGSTYYNPSLKSRVTISVDTSKNQFSLKLSSVTAADTAVYYCARLPMGCGSGMDVWGQGTTVTVSS
VL: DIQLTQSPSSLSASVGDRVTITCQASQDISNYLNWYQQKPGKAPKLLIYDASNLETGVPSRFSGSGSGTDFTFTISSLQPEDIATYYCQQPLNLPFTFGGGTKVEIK
notes: IgG

Columns and labels:
[1] = molecular target: T1, mouse SIRPA overexpressed on CHO cells; assay: flow, CHO-muSIRPA;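 as to relative MFI: antibody binding measured by flow cytometry: cells stained with 1 ug/ml test antibody for 1 h on ice, detected with PE-labelled secondary antibody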
Human SIRPA D1 Fc = molecular target: T3, Human SIRPA D1 Fc (human, UniProt P78324 32-137); assay: ForteBio IgG avid;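 also: antibody IgG captured on AHQ biosensors, then 100 nM Fc-fused SIRP antigen applied for 3 min, followed by 3 min buffer dissociation, kinetics fitted to a 1:1 model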
T3 construct: not shown: human IgG1 Fc

Mouse SIRPA D1 Fc = molecular target: T2, Mouse SIRPA D1 Fc; assay: ForteBio IgG avid;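 also: antibody IgG captured on AHQ biosensors, then 100 nM Fc-fused SIRP antigen applied for 3 min, followed by 3 min buffer dissociation, kinetics fitted to a 1:1 model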
Procedure: (§1) Briefly, ForteBio affinity measurements were performed by loading IgGs on-line onto AHQ sensors. Sensors were equilibrated off-line in assay buffer for 30 min and then monitored on-line for 60 seconds for baseline establishment. For avid binding measurement, sensors with loaded IgGs were exposed to 100 nM antigen (human SIRPA or SIRPβ1 Fc fusion) for 3 min, afterwards they were transferred to assay buffer for 3 min for off-rate measurement. Additional avid binding was determined by loading biotinylated SIRPA monomer on SA sensors and exposure to 100 nM IgG in solution. Monovalent binding measurements were obtained by loading human SIRPA or SIRPβ1 Fc fusion antigens to AHQ sensor and followed by exposure to 100 nM anti-SIRPA antibody Fab. Additional monovalent measurements were made by loading biotinylated human SIRPA or SIRPβ1 monomer to SA sensor followed by exposure to 100 nM Fab in solution. Kinetics data were fit using a 1:1 binding model in the data analysis software provided by ForteBio.

Human SIRPb D1 Fc = Human SIRPb D1 Fc (human, UniProt O00241 30-148, limits assumed); assay: ForteBio IgG avid;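 also: antibody IgG captured on AHQ biosensors, then 100 nM Fc-fused SIRP antigen applied for 3 min, followed by 3 min buffer dissociation, kinetics fitted to a 1:1 model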
Sequence of Human SIRPb D1 Fc (O00241 30-148 limits assumed): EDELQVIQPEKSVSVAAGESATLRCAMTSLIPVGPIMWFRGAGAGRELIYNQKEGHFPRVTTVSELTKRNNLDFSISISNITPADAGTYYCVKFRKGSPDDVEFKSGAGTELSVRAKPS
Procedure: as §1

[2] = molecular target: T4, human SIRPA overexpressed on CHO cells (human, UniProt P78324 31-504); assay: flow, CHO-huSIRPA;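 also: Anti-SIRPA antibodies applied at 1 µg/mL for 1 h on ice, binding read by flow cytometry using a PE-labelled secondary antibody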
T4 construct: also called CHO-huSIRPA

[3] = molecular target: T1, mouse SIRPA overexpressed on CHO cells; assay: flow, CHO-muSIRPA; remark: listed apart in the source;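 as to relative MFI: antibody binding measured by flow cytometry: cells stained with 1 ug/ml test antibody for 1 h on ice, detected with PE-labelled secondary antibody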
Procedure: Initial characterization of anti-SIRPA antibodies of the present disclosure involved determining their ability to bind cell lines overexpressing human or mouse SIRPA. Cells were harvested, plated at 10⁶/ml in a 96 well plate, washed, and incubated in 100 ul PBS containing 1 ug/ml Mab for 1 hour in ice. Cells were then washed twice and incubated in 100 ul PBS containing 5 ug/ml PE-conjugated secondary antibody for 30 minutes in ice. Cells were washed twice in cold PBS and acquired on a BD FACS Canto. Data analysis and calculation of mean fluorescence intensity (MFI) values or % positive cells was performed with FlowJo® (TreeStar) software version 10.0.7.

Row | Binder | binding result [1] | Kd (Human SIRPA D1 Fc) | binding result (Mouse SIRPA D1 Fc) | binding result (Human SIRPb D1 Fc) | relative MFI [2] | relative MFI [3] | Kd (Human SIRPb D1 Fc)
1 | B1 | no binding (tested: 1 ug/ml) | 10.2 nM | no binding (tested: 100 nM) | no binding (tested: 100 nM) | 1.27 fold over background | 0.464 fold over background | –
2 | B2 | no binding (tested: 1 ug/ml) | 3.81 nM | no binding (tested: 100 nM) | no binding (tested: 100 nM) | 2.96 fold over background | 0.458 fold over background | –
3 | B3 | no binding (tested: 1 ug/ml) | 8.67 nM | no binding (tested: 100 nM) | no binding (tested: 100 nM) | 27.9 fold over background | 0.574 fold over background | –
4 | B4 | no binding (tested: 1 ug/ml) | 22.2 nM | no binding (tested: 100 nM) | no binding (tested: 100 nM) | 4.85 fold over background | 0.539 fold over background | –
5 | B5 | no binding (tested: 1 ug/ml) | 24.4 nM | no binding (tested: 100 nM) | no binding (tested: 100 nM) | 35.4 fold over background | 0.685 fold over background | –
6 | B6 | no binding (tested: 1 ug/ml) | 3.62 nM | no binding (tested: 100 nM) | – | 1.47 fold over background | 0.571 fold over background | 22.3 nM
7 | B7 | no binding (tested: 1 ug/ml) | 15.4 nM | no binding (tested: 100 nM) | no binding (tested: 100 nM) | 11.3 fold over background | 0.479 fold over background | –
8 | B8 | no binding (tested: 1 ug/ml) | 23.6 nM | no binding (tested: 100 nM) | no binding (tested: 100 nM) | 0.63 fold over background | 0.53 fold over background | –
9 | B9 | no binding (tested: 1 ug/ml) | 16.5 nM | no binding (tested: 100 nM) | no binding (tested: 100 nM) | 7.09 fold over background | 0.557 fold over background | –
10 | B10 | no binding (tested: 1 ug/ml) | 26.8 nM | no binding (tested: 100 nM) | no binding (tested: 100 nM) | 0.806 fold over background | 0.613 fold over background | –
11 | B11 | no binding (tested: 1 ug/ml) | 10.2 nM | no binding (tested: 100 nM) | no binding (tested: 100 nM) | 48.2 fold over background | 0.491 fold over background | –
12 | B12 | no binding (tested: 1 ug/ml) | 20 nM | no binding (tested: 100 nM) | no binding (tested: 100 nM) | 1.47 fold over background | 0.545 fold over background | –
13 | B13 | no binding (tested: 1 ug/ml) | 2.44 nM | no binding (tested: 100 nM) | no binding (tested: 100 nM) | 98.3 fold over background | 0.527 fold over background | –
14 | B14 | no binding (tested: 1 ug/ml) | 10.5 nM | no binding (tested: 100 nM) | no binding (tested: 100 nM) | 0.56 fold over background | 0.479 fold over background | –
15 | B15 | no binding (tested: 1 ug/ml) | 4.31 nM | no binding (tested: 100 nM) | no binding (tested: 100 nM) | 50.8 fold over background | 0.738 fold over background | –
